Test results reported in publication PMC10151520, “TapA acts as specific chaperone in TasA filament formation by strand complementation” (Proceedings of the National Academy of Sciences of the …, 2023).
Each block holds one binder with its values, some of them ahead of it.

What was measured:
[1] = biological target: T1, TasA (mature protein, residues 28 to 261) (Bacillus subtilis (strain 168), UniProt P54507); test: AUC (sedimentation velocity); 150 mM NaCl at pH 7 (no ITC response at 50 mM NaCl, pH 7); TapA-induced TasA oligomerization
T1 chain: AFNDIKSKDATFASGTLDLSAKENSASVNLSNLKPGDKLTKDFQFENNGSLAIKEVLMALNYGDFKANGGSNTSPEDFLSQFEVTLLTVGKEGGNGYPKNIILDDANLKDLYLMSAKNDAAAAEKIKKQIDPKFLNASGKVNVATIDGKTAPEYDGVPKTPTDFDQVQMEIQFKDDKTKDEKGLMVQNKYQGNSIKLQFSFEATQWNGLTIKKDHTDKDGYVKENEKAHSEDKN

[2] = biological target: the molecule itself; test: SEC; gel filtration of TapA constructs, without DTT
[3] = biological target: T2, TasA (mature protein, residues 28 to 261) (Bacillus subtilis, UniProt P54507 28-261); test: AUC; sedimentation velocity of mixtures: 100 µM TasA with TapA (100, 70, 10, 4, 2 or 1 µM), TapA variants (100 µM) or 250 µM peptide; 20 °C, 20 mM Na phosphate pH 7.0, 150 mM NaCl, 40,000 rpm, runs of 17 h; details: both partners purified
T2 construct: Used unlabelled or isotope-labelled (2H,13C,15N; 2H,15N; [2-13C]-glycerol) according to the experiment; also called translocation-dependent antimicrobial spore component; source: monomer separated by gel filtration
T2 sequence (looked up): T1 chain

[4] = biological target: the molecule itself; test: time course of 1H solution NMR signals of the monomer; one-dimensional 1H spectra over time after mixing; TasA at 125 or 250 µM with TapA or TapA variants (e.g. 5:1); legend: 20 °C, pH 7, 150 mM NaCl

- binding result [1]: binds
B1: TapA (mature protein, residues 44 to 253) (protein)
chain: AFHDIETFDVSLQTCKDFQHTDKNCHYDKRWDQSDLHISDQTDTKGTVCSPFALFAVLENTGEKLKKSKWKWELHKLENARKPLKDGNVIEKGFVSNQIGDSLYKIETKKKMKPGIYAFKVYKPAGYPANGSTFEWSEPMRLAKCDEKPTVPKKETKSDVKKENETTQKDIPEKTMKEETSQEAVTKEKETQSDQKESGEEDEKSNEADQ

B2: TapA_(60-190) (domain or fragment, B. subtilis 168, UniProt P40949 60-190, looked up)
chain: DFQHTDKNCHYDKRWDQSDLHISDQTDTKGTVCSPFALFAVLENTGEKLKKSKWKWELHKLENARKPLKDGNVIEKGFVSNQIGDSLYKIETKKKMKPGIYAFKVYKPAGYPANGSTFEWSEPMRLAKCDE
notes: TapA of Bacillus subtilis 168, residues 60 to 190; Odd number of cysteines (free C68)
- stoichiometry N [2]: 2

- binding result [3]: binds
B3: TapA_(44-190) (domain or fragment, B. subtilis 168, UniProt P40949 44-190, looked up)
chain: AFHDIETFDVSLQTCKDFQHTDKNCHYDKRWDQSDLHISDQTDTKGTVCSPFALFAVLENTGEKLKKSKWKWELHKLENARKPLKDGNVIEKGFVSNQIGDSLYKIETKKKMKPGIYAFKVYKPAGYPANGSTFEWSEPMRLAKCDE
notes: also called TapA without residues beyond E190; variant with deleted C terminus

B4: TasA_(28-239) (domain or fragment, Bacillus subtilis, UniProt P54507 28-239, looked up)
chain: AFNDIKSKDATFASGTLDLSAKENSASVNLSNLKPGDKLTKDFQFENNGSLAIKEVLMALNYGDFKANGGSNTSPEDFLSQFEVTLLTVGKEGGNGYPKNIILDDANLKDLYLMSAKNDAAAAEKIKKQIDPKFLNASGKVNVATIDGKTAPEYDGVPKTPTDFDQVQMEIQFKDDKTKDEKGLMVQNKYQGNSIKLQFSFEATQWNGLTIK
- binding result [4]: binds

B5: TapA_(66-190) (domain or fragment, B. subtilis 168, UniProt P40949 66-190, looked up)
chain: KNCHYDKRWDQSDLHISDQTDTKGTVCSPFALFAVLENTGEKLKKSKWKWELHKLENARKPLKDGNVIEKGFVSNQIGDSLYKIETKKKMKPGIYAFKVYKPAGYPANGSTFEWSEPMRLAKCDE
notes: TapA of Bacillus subtilis 168, residues 66 to 190; Odd number of cysteines (free C68)
- stoichiometry N [2]: 2
